We go through five substances from article PMC3087504.

The target of series [1] is TAp63α (murine, N-terminal His6-tag, from pBH4) (mouse). In words: SEC; purified proteins from E. coli, 3–15 μM, Superose 6 10/300 GL, 16°C, 10 mM potassium phosphate pH 7.6, 200 mM NaCl; column calibrated with globular standards.
For series [2] the target is unchanged. In words: SEC-MALS; Superdex 200 5/150 GL, room temperature, 80 μl of purified protein of ~1 mg/ml, 0.3 ml/min.
Another series concerns the target p63 (Homo sapiens) (UniProt Q9H3D4). The conditions noted are these: cited from earlier work.
Series [3] concerns the target His-MBP-ΔNp63α^PPR (mouse). In words: SEC; purified proteins from E. coli, 3–15 μM, Superose 6 10/300 GL, 16°C, 10 mM potassium phosphate pH 7.6, 200 mM NaCl; column calibrated with globular standards.
The target in series [4] is MBP-TAp63α (mouse). In words: native MS; LILBID-MS, ~10 μM protein dialyzed against 10 mM potassium phosphate pH 7.6 without NaCl.
The target of series [5] is MBP-TAp63α (mouse). In words: AUC; sedimentation equilibrium, 7000 and 9000 rpm, 1–8 μM monomer, 4°C, 20 mM potassium phosphate pH 7.5, 200 mM NaCl, 2 mM dithiothreitol.
Series [6] concerns the target MBP-TAp63α (mouse). In words: AUC; sedimentation velocity, 45,000 rpm, 4 μM protein, 4°C, 20 mM potassium phosphate pH 7.5, 200 mM NaCl, 2 mM dithiothreitol.
Series [7] deals with MBP-TAp63α (mouse). In words: SEC; purified proteins from E. coli, 3–15 μM, Superose 6 10/300 GL, 16°C, 10 mM potassium phosphate pH 7.6, 200 mM NaCl; column calibrated with globular standards.
Series [8] deals with MBP-TAp63α (mouse). In words: SEC-MALS; Superdex 200 5/150 GL, room temperature, 80 μl of purified protein of ~1 mg/ml, 0.3 ml/min.
Series [9] concerns the target T1, MBP-TAp63αFTL (Mus musculus) (UniProt O88898).
T1 sequence: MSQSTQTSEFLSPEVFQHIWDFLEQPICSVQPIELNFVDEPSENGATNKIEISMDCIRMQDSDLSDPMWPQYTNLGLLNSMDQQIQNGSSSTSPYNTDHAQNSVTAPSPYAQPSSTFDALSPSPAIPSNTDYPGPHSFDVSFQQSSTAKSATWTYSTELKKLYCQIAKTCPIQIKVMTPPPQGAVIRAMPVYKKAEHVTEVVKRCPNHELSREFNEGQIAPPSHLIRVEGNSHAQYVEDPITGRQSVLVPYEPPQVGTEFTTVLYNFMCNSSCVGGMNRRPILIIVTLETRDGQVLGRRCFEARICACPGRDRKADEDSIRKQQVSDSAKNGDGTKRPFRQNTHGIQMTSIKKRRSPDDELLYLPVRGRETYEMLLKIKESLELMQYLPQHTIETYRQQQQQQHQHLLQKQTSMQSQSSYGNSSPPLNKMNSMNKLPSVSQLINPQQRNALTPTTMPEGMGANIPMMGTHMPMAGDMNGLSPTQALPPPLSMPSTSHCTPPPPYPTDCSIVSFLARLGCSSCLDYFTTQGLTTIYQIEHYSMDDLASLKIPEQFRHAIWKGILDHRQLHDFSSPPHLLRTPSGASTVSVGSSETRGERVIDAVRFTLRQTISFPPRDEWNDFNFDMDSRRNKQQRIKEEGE
In words: fluorescence anisotropy. The following applies: 10 mM potassium phosphate pH 7.6, 200 mM NaCl, room temperature, 30 min, 15 nM p21 DNA (300 nM for controls), protein 0.1-15 µM monomer.

Series [10] concerns T2, MBP-TAp63γ (Mus musculus), O88898-5.
T2 sequence: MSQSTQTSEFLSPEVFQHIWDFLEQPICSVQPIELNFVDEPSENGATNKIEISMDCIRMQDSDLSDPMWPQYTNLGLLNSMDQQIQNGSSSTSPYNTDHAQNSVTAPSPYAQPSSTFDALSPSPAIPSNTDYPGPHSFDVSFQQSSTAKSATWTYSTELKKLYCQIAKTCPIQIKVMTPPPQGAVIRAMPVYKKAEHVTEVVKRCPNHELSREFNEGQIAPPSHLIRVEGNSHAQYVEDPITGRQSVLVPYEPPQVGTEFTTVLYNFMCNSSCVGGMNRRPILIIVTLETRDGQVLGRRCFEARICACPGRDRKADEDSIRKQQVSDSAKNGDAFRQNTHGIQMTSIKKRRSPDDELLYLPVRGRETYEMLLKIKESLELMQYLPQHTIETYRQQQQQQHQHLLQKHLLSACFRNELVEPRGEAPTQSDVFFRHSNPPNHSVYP
In words: fluorescence anisotropy. The conditions noted are these: 10 mM potassium phosphate pH 7.6, 200 mM NaCl, room temperature, 30 min, 15 nM p21 DNA (300 nM for controls), protein 0.1-15 µM monomer.

The mark [11] stands for this setting: second binding site of two-site fit, suggested unspecific.
Where [12] appears, read: two-site fit, first site, monomer concentration.

p63, sequence (Q9H3D4 whole entry): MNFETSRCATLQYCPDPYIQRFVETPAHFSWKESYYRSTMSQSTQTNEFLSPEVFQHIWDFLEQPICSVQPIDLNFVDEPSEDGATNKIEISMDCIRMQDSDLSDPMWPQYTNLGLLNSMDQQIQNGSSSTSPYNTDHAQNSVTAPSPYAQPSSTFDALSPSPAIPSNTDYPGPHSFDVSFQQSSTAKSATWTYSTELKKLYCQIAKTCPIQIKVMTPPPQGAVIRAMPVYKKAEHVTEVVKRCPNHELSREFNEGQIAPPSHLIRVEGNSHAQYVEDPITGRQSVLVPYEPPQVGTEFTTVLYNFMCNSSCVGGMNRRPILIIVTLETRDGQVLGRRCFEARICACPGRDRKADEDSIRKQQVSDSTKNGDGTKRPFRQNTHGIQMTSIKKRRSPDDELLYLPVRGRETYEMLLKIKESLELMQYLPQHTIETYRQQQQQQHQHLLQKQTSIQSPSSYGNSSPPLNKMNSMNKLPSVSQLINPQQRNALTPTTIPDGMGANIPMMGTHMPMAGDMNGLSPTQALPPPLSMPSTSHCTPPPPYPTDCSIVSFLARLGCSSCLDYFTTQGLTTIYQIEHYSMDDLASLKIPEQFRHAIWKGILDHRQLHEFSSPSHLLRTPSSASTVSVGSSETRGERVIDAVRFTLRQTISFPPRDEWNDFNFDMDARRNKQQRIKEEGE

“TAp63α (murine, N-terminal His6-tag, from pBH4) (natural protein)”: the stoichiometry N in series [1] and in series [2] was 2 throughout.
Turning to p63 (from UniProt Q9H3D4), in the series with p63 (Homo sapiens), the dissociation constant (Kd) is 12 nM.
Turning to His-MBP-ΔNp63α^PPR (natural protein), in series [3], the stoichiometry N is 4.
MBP-TAp63α (natural protein): the stoichiometry N in the series with MBP-TAp63α (mouse) [4], in the series with MBP-TAp63α (mouse) [5], with MBP-TAp63α (mouse) [6], with MBP-TAp63α (mouse) [7] and with MBP-TAp63α (mouse) [8] was 2 throughout.
“GGCAGGAACATGTCCCAACATGTTGAGCCG (double strand) [p21 promoter response element]”: the equilibrium dissociation constant (Kd) in series [9] (setting [11]) was found to be 47100 nM; in series [9] (setting [12]), 380 nM; in series [10] (setting [11]), 20800 nM; in series [10] (setting [12]), 340 nM.
